Reference: patent publication US20250122300A1 (INSERM INSTITUT NATIONAL DE LA SANT ET DE LA RECHERCHE M …, published 2025)

What was measured:
[1] = molecular target: macaque CD45RC (cynomolgus macaque); test: flow cytometry, cynomolgus macaque PBMC, CD3- cells
[2] = molecular target: macaque CD45RC (cynomolgus macaque); test: flow cytometry, cynomolgus macaque PBMC, CD3+ cells (p-1488)
human CD45RC [3] = molecular target: T1, human CD45RC (human, UniProt P08575 26-1306); test: flow cytometry, human whole blood; NK [1]
T1 construct: In flow cytometry the protein is on human PBMC (which may also carry other CD45 isoforms with the C determinant); in the SPR assay it is in solubilised membranes of CD45RC-high PBMC or of CHO cells transfected with CD45RC; also called hCD45RC
T1 sequence: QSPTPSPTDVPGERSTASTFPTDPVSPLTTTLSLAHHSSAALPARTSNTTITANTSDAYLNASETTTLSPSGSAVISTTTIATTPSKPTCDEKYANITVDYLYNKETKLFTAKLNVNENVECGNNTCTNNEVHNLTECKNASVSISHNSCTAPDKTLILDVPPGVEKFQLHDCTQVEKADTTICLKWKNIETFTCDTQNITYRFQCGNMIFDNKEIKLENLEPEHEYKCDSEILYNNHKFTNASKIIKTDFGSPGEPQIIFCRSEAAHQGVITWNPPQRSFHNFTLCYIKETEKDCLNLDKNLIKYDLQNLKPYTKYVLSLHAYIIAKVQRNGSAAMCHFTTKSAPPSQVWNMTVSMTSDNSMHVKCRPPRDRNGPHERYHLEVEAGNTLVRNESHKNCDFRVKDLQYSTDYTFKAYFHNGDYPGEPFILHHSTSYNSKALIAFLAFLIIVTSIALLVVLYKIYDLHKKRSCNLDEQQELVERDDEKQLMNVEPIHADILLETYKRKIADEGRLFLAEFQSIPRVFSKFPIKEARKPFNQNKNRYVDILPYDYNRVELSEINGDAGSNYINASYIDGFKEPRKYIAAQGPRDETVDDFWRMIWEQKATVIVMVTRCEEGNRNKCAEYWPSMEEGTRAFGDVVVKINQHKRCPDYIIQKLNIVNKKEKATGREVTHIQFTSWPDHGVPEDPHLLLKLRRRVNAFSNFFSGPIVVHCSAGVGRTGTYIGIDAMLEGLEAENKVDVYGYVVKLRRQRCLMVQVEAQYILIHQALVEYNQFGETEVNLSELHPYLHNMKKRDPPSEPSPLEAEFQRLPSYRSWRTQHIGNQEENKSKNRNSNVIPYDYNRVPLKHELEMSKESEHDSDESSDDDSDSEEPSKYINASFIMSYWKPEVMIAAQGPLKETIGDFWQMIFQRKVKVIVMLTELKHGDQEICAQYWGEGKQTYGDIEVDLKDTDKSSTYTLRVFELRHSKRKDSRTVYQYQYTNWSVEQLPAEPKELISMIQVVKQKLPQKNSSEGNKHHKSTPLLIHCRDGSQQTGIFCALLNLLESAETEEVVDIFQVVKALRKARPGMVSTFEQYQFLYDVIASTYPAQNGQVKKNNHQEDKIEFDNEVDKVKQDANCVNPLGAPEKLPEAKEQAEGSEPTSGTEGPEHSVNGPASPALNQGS

human CD45RC [4] = molecular target: T1, human CD45RC; test: flow cytometry, human whole blood; NKT [2]
human CD45RC [5] = molecular target: T1, human CD45RC; test: flow cytometry, human whole blood; mDC [3]
human CD45RC [6] = molecular target: T1, human CD45RC; test: flow cytometry, human whole blood; pDC [3]
human CD45RC [7] = molecular target: T1, human CD45RC; test: flow cytometry, human whole blood; ILC1 [2]
human CD45RC [8] = molecular target: T1, human CD45RC; test: flow cytometry, human whole blood; ILC2 [2]
human CD45RC [9] = molecular target: T1, human CD45RC; test: flow cytometry, human whole blood; ILC3 [2]
human CD45RC [10] = molecular target: T1, human CD45RC; test: flow cytometry, human whole blood; MAIT [2]
human CD45RC [11] = molecular target: T1, human CD45RC; test: flow cytometry, human whole blood; iNKT [2]
human CD45RC [12] = molecular target: T1, human CD45RC; test: flow cytometry, human whole blood; CD4+ T [1]
human CD45RC [13] = molecular target: T1, human CD45RC; test: flow cytometry, human whole blood; CD8+ T [1]
human CD45RC [14] = molecular target: T1, human CD45RC; test: flow cytometry, human whole blood; B cells [1]
human CD45RC [15] = molecular target: T1, human CD45RC; test: flow cytometry, human whole blood; T cells [1]
human CD45RC [16] = molecular target: T1, human CD45RC; test: flow cytometry, human whole blood; Basophils [3]
human CD45RC [17] = molecular target: T1, human CD45RC; test: flow cytometry, human whole blood; CD3+ TCRab [1]
human CD45RC [18] = molecular target: T1, human CD45RC; test: flow cytometry, human whole blood; CD3+ TCRgd [1]
human CD45RC [19] = molecular target: T1, human CD45RC; test: flow cytometry, human whole blood; Eosinophils [3]
human CD45RC [20] = molecular target: T1, human CD45RC; test: flow cytometry, human whole blood; Neutrophils [3]
human CD45RC [21] = molecular target: T1, human CD45RC; test: flow cytometry, human whole blood; Monocytes CD14+ [2]
human CD45RC [22] = molecular target: T1, human CD45RC; test: flow cytometry, human whole blood; Monocytes CD14intCD16+ [3]
human CD45RC [23] = molecular target: T1, human CD45RC; test: flow cytometry, human whole blood; CD4+ Treg (CD25+CD127-) [1]
human CD45RC [24] = molecular target: T1, human CD45RC; test: flow cytometry, human whole blood; Monocytes CD14highCD16- [2]
[25] = molecular target: macaque CD45RC (cynomolgus macaque); test: flow cytometry, cynomolgus macaque PBMC, CD3- cells; 10 µg/ml (p-1486)
[26] = molecular target: macaque CD45RC (cynomolgus macaque); test: flow cytometry, cynomolgus macaque PBMC, CD3+ cells (p-1488); 10 µg/ml (p-1486)
human CD45RC [27] = molecular target: T1, human CD45RC; test: SPR (BIAcore 3000 / T200), ABIS-45RC immobilised on CM5 chip, solubilised membranes of CD45RC-high PBMC or CD45RC-transfected CHO cells as analyte, 25 C, single cycle kinetics
Description: Briefly, 1×10⁷ CD45RC^high PBMCs or CHO cells expressing CD45RC after plasmid transfection were solubilized using the Mem-PER membrane isolation kit (Thermo-fisher).

Molecule: Isotype (antibody)
- % of cells CD45RC+ [1]: 2.7%
- % of cells CD45RC+ [2]: 4.37%

Molecule: MT2 (antibody)
- % of cells CD45RC high (human CD45RC [3]): 28.6%
- % of cells CD45RC low (human CD45RC [3]): 70.4%
- % of cells CD45RC negative (human CD45RC [3]): 1%
- % of cells CD45RC high (human CD45RC [4]): 34.4%
- % of cells CD45RC low (human CD45RC [4]): 54.2%
- % of cells CD45RC negative (human CD45RC [4]): 11.4%
- % of cells CD45RC high (human CD45RC [5]): 0%
- % of cells CD45RC low (human CD45RC [5]): 14.3%
- % of cells CD45RC negative (human CD45RC [5]): 85.7%
- % of cells CD45RC high (human CD45RC [6]): 1.84%
- % of cells CD45RC low (human CD45RC [6]): 97.9%
- % of cells CD45RC negative (human CD45RC [6]): 0.23%
- % of cells CD45RC high (human CD45RC [7]): 9.3%
- % of cells CD45RC low (human CD45RC [7]): 27.5%
- % of cells CD45RC negative (human CD45RC [7]): 63.2%
- % of cells CD45RC high (human CD45RC [8]): 45%
- % of cells CD45RC low (human CD45RC [8]): 49.5%
- % of cells CD45RC negative (human CD45RC [8]): 5.5%
- % of cells CD45RC high (human CD45RC [9]): 50%
- % of cells CD45RC low (human CD45RC [9]): 50%
- % of cells CD45RC negative (human CD45RC [9]): 0%
- % of cells CD45RC high (human CD45RC [10]): 5.89%
- % of cells CD45RC low (human CD45RC [10]): 71%
- % of cells CD45RC negative (human CD45RC [10]): 23.2%
- % of cells CD45RC high (human CD45RC [11]): 24.1%
- % of cells CD45RC low (human CD45RC [11]): 61.6%
- % of cells CD45RC negative (human CD45RC [11]): 14.3%
- % of cells CD45RC high (human CD45RC [12]): 3.64%
- % of cells CD45RC low (human CD45RC [12]): 47.2%
- % of cells CD45RC negative (human CD45RC [12]): 49.2%
- % of cells CD45RC high (human CD45RC [13]): 38.8%
- % of cells CD45RC low (human CD45RC [13]): 39.7%
- % of cells CD45RC negative (human CD45RC [13]): 21.5%
- % of cells CD45RC high (human CD45RC [14]): 79.9%
- % of cells CD45RC low (human CD45RC [14]): 20.1%
- % of cells CD45RC negative (human CD45RC [14]): 0%
- % of cells CD45RC high (human CD45RC [15]): 7.43%
- % of cells CD45RC low (human CD45RC [15]): 49.7%
- % of cells CD45RC negative (human CD45RC [15]): 42.9%
- % of cells CD45RC high (human CD45RC [16]): 0%
- % of cells CD45RC low (human CD45RC [16]): 7.3%
- % of cells CD45RC negative (human CD45RC [16]): 92.7%
- % of cells CD45RC high (human CD45RC [17]): 8.34%
- % of cells CD45RC low (human CD45RC [17]): 46.2%
- % of cells CD45RC negative (human CD45RC [17]): 45.5%
- % of cells CD45RC high (human CD45RC [18]): 1.93%
- % of cells CD45RC low (human CD45RC [18]): 90.6%
- % of cells CD45RC negative (human CD45RC [18]): 7.46%
- % of cells CD45RC high (human CD45RC [19]): 0.47%
- % of cells CD45RC low (human CD45RC [19]): 90.5%
- % of cells CD45RC negative (human CD45RC [19]): 9.08%
- % of cells CD45RC high (human CD45RC [20]): 0.014%
- % of cells CD45RC low (human CD45RC [20]): 19.3%
- % of cells CD45RC negative (human CD45RC [20]): 80.7%
- % of cells CD45RC high (human CD45RC [21]): 0.43%
- % of cells CD45RC low (human CD45RC [21]): 43.9%
- % of cells CD45RC negative (human CD45RC [21]): 55.6%
- % of cells CD45RC high (human CD45RC [22]): 6.45%
- % of cells CD45RC low (human CD45RC [22]): 87.7%
- % of cells CD45RC negative (human CD45RC [22]): 5.87%
- % of cells CD45RC high (human CD45RC [23]): 3.52%
- % of cells CD45RC low (human CD45RC [23]): 19.8%
- % of cells CD45RC negative (human CD45RC [23]): 76.7%
- % of cells CD45RC high (human CD45RC [24]): 0.091%
- % of cells CD45RC low (human CD45RC [24]): 38.3%
- % of cells CD45RC negative (human CD45RC [24]): 61.6%

B1: ABIS-45RC (antibody, mouse IgG1, kappa, V domains shown)
VH: QVQLQQSGAELVRPGTSVKMSCKAAGYTFTNYYIGWVKQRPGHGLEWIGDIFPGGDYANSNEKFKGKATLTADTSSSTAYMQLSSLTSEDSAIYYCVRRNFDYWGQGTTLTVSS
VL: QIVLTQSPTIMSASPGEKVTITCSASSSVSYMHWFQQKTGTSPRLWIYNTSNLPSGVPARFSGSGSGTSYSLTISRMEAEDAATYYCQQRSSYPLTFGAGTKLELKR
notes: the variable domains are the same; also called murine ABIS-45RC; murine anti-hCD45RC antibody of the invention
- % of cells CD45RC+ [25]: 74.1%
- % of cells CD45RC+ [26]: 26.1%
- Kd (human CD45RC [27]): 50 nM
- koff (human CD45RC [27]): 0.0144 s⁻¹
- kon (human CD45RC [27]): 291000 M⁻¹ s⁻¹
